Assay results: article PMC9482650, “Quantitative fragmentomics allow affinity mapping of interactomes” (Nature Communications, 2022)

T1: CNKSR1, Q969H4
T1 sequence (Q969H4 191-295, limits assumed, looked up): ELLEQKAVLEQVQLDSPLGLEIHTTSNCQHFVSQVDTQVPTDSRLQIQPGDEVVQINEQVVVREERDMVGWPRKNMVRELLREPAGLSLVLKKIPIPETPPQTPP

T2: INTU, Q9ULD6
T2 sequence (Q9ULD6 180-273, limits assumed, looked up): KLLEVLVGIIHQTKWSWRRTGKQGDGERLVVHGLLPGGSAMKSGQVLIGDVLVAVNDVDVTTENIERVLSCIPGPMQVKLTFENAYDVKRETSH

T3: LNX2_4, Q8N448
T3 sequence (Q8N448 595-690, limits assumed, looked up): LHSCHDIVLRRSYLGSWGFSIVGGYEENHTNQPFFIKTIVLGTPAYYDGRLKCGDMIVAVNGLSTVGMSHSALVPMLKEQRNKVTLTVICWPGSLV

T4: MAGI2_1, Q86UL8
T4 sequence (Q86UL8 12-111, limits assumed, looked up): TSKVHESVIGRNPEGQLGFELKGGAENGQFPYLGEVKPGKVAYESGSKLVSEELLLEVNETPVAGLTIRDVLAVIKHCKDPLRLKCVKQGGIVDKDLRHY

T5: MLLT4, P55196
T5 sequence (P55196 1002-1103, limits assumed, looked up): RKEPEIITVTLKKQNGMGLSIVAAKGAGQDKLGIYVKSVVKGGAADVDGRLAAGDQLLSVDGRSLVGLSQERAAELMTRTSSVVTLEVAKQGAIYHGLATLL

T6: MPDZ_11, O75970
T6 sequence (O75970 1720-1817, limits assumed, looked up): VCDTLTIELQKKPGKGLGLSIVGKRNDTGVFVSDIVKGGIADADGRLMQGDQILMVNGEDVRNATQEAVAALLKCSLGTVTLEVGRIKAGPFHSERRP

T7: PDZD2_3, O15018
T7 sequence (O15018 581-682, limits assumed, looked up): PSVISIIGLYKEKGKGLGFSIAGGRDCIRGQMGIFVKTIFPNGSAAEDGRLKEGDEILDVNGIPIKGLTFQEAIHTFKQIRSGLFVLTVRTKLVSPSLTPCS

T8: PDZRN3_2, Q9UPQ7
T8 sequence (Q9UPQ7 414-513, limits assumed, looked up): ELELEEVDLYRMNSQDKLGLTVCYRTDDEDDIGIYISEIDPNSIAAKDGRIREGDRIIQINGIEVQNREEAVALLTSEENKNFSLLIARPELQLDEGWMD

T9: PTPN4, P29074
T9 sequence (P29074 512-599, limits assumed, looked up): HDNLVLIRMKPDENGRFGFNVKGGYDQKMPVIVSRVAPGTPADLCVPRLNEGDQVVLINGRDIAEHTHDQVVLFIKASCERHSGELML

T10: SHANK2, Q9UPX8
T10 sequence (Q9UPX8 621-730, limits assumed, looked up): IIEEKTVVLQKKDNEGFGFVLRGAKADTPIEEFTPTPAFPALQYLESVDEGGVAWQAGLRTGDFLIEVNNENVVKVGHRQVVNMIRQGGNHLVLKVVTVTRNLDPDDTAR

T11: SHROOM2, Q13796
T11 sequence (Q13796 21-118, limits assumed, looked up): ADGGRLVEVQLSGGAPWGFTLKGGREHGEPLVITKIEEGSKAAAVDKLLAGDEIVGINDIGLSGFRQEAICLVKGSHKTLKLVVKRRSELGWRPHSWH

T12: SHROOM4, Q9ULL8
T12 sequence (Q9ULL8 5-102, limits assumed, looked up): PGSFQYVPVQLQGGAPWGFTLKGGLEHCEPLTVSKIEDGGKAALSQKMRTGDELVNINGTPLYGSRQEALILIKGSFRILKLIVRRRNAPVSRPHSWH

T13: TJP3_1, O95049
T13 sequence (O95049 6-103, limits assumed, looked up): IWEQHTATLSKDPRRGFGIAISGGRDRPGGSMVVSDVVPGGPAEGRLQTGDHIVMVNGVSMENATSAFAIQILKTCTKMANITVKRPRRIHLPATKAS

T14: USH1C_1, Q9Y6N9
T14 sequence (Q9Y6N9 82-179, limits assumed, looked up): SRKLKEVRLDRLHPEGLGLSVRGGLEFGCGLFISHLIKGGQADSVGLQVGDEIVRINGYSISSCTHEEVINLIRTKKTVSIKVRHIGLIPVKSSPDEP


target: T1, CNKSR1, Q969H4; test: holdup assay; set-up: key: below the threshold = too weak to quantify, mostly under pKd 3.1 to 4; settings: plain residues with an end cap or a label only (N-terminal biotin on a linker: ttds)

Binder | pKd
RSLEEEESQL [GRASP, Q7Z6J2] | below the threshold
SRPQRTQTQV [HPV67-E6, A4U7F2] | below the threshold

target: GIPC3, Q8TF64; test: holdup assay; set-up: key: below the threshold = too weak to quantify, mostly under pKd 3.1 to 4; settings: plain residues with an end cap or a label only (N-terminal biotin on a linker: ttds)
Sequence (Q8TF64 107-202): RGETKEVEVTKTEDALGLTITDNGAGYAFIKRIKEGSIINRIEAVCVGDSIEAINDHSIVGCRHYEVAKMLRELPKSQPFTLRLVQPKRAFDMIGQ

Binder | pKd
RSLEEEESQL [GRASP, Q7Z6J2] | below the threshold
SRPQRTQTQV [HPV67-E6, A4U7F2] | below the threshold

target: IL16_2, Q14005; test: holdup assay; set-up: key: below the threshold = too weak to quantify, mostly under pKd 3.1 to 4; settings: plain residues with an end cap or a label only (N-terminal biotin on a linker: ttds)
Sequence (Q14005 350-450): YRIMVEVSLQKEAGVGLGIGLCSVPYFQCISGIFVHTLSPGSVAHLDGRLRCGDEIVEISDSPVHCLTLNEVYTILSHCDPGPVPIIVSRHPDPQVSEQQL

Binder | pKd
RSLEEEESQL [GRASP, Q7Z6J2] | below the threshold
SRPQRTQTQV [HPV67-E6, A4U7F2] | 4.25

target: T2, INTU, Q9ULD6; test: holdup assay; set-up: key: below the threshold = too weak to quantify, mostly under pKd 3.1 to 4; settings: plain residues with an end cap or a label only (N-terminal biotin on a linker: ttds)

Binder | pKd
SRPQRTQTQV [HPV67-E6, A4U7F2] | below the threshold

target: T3, LNX2_4, Q8N448; test: holdup assay; set-up: key: below the threshold = too weak to quantify, mostly under pKd 3.1 to 4; settings: plain residues with an end cap or a label only (N-terminal biotin on a linker: ttds)

Binder | pKd
RSLEEEESQL [GRASP, Q7Z6J2] | below the threshold
SRPQRTQTQV [HPV67-E6, A4U7F2] | below the threshold

target: MAGI1_3, Q96QZ7; test: holdup assay; set-up: key: below the threshold = too weak to quantify, mostly under pKd 3.1 to 4; settings: plain residues with an end cap or a label only (N-terminal biotin on a linker: ttds)
Sequence (Q96QZ7 638-725): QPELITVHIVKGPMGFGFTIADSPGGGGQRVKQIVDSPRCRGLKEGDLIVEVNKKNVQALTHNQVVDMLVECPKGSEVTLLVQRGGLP

Binder | pKd
RSLEEEESQL [GRASP, Q7Z6J2] | below the threshold
SRPQRTQTQV [HPV67-E6, A4U7F2] | 4.12

target: T4, MAGI2_1, Q86UL8; test: holdup assay; set-up: key: below the threshold = too weak to quantify, mostly under pKd 3.1 to 4; settings: plain residues with an end cap or a label only (N-terminal biotin on a linker: ttds)

Binder | pKd
RSLEEEESQL [GRASP, Q7Z6J2] | below the threshold
SRPQRTQTQV [HPV67-E6, A4U7F2] | below the threshold

target: MAGI3_4, Q5TCQ9; test: holdup assay; set-up: key: below the threshold = too weak to quantify, mostly under pKd 3.1 to 4; settings: plain residues with an end cap or a label only (N-terminal biotin on a linker: ttds)
Sequence (Q5TCQ9 716-815): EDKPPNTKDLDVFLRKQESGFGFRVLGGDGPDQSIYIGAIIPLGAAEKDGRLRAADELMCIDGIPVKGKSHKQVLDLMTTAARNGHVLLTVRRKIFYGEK

Binder | pKd
RSLEEEESQL [GRASP, Q7Z6J2] | below the threshold
SRPQRTQTQV [HPV67-E6, A4U7F2] | below the threshold

target: T5, MLLT4, P55196; test: holdup assay; set-up: key: below the threshold = too weak to quantify, mostly under pKd 3.1 to 4; settings: plain residues with an end cap or a label only (N-terminal biotin on a linker: ttds)

Binder | pKd
RSLEEEESQL [GRASP, Q7Z6J2] | below the threshold
SRPQRTQTQV [HPV67-E6, A4U7F2] | below the threshold

target: T6, MPDZ_11, O75970; test: holdup assay; set-up: key: below the threshold = too weak to quantify, mostly under pKd 3.1 to 4; settings: plain residues with an end cap or a label only (N-terminal biotin on a linker: ttds)

Binder | pKd
RSLEEEESQL [GRASP, Q7Z6J2] | below the threshold
SRPQRTQTQV [HPV67-E6, A4U7F2] | below the threshold

target: PARD3B_2, Q8TEW8; test: holdup assay; set-up: key: below the threshold = too weak to quantify, mostly under pKd 3.1 to 4; settings: plain residues with an end cap or a label only (N-terminal biotin on a linker: ttds)
Sequence (Q8TEW8 376-471): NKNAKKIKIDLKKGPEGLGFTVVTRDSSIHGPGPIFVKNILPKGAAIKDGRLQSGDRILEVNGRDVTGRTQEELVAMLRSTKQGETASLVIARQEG

Binder | pKd
RSLEEEESQL [GRASP, Q7Z6J2] | below the threshold

target: PARD3B_3, Q8TEW8; test: holdup assay; set-up: key: below the threshold = too weak to quantify, mostly under pKd 3.1 to 4; settings: plain residues with an end cap or a label only (N-terminal biotin on a linker: ttds)
Sequence (Q8TEW8 490-594): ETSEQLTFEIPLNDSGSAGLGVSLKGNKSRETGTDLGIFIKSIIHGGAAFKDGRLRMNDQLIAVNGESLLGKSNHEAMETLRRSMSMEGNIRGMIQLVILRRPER

Binder | pKd
RSLEEEESQL [GRASP, Q7Z6J2] | below the threshold
SRPQRTQTQV [HPV67-E6, A4U7F2] | below the threshold

target: PARD3_1, Q8TEW0; test: holdup assay; set-up: key: below the threshold = too weak to quantify, mostly under pKd 3.1 to 4; settings: plain residues with an end cap or a label only (N-terminal biotin on a linker: ttds)
Sequence (Q8TEW0 264-372): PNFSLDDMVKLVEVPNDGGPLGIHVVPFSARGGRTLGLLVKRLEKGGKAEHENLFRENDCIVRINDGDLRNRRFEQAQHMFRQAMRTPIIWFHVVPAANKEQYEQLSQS

Binder | pKd
RSLEEEESQL [GRASP, Q7Z6J2] | below the threshold
SRPQRTQTQV [HPV67-E6, A4U7F2] | below the threshold

target: T7, PDZD2_3, O15018; test: holdup assay; set-up: key: below the threshold = too weak to quantify, mostly under pKd 3.1 to 4; settings: plain residues with an end cap or a label only (N-terminal biotin on a linker: ttds)

Binder | pKd
RSLEEEESQL [GRASP, Q7Z6J2] | below the threshold
SRPQRTQTQV [HPV67-E6, A4U7F2] | below the threshold

target: T8, PDZRN3_2, Q9UPQ7; test: holdup assay; set-up: key: below the threshold = too weak to quantify, mostly under pKd 3.1 to 4; settings: plain residues with an end cap or a label only (N-terminal biotin on a linker: ttds)

Binder | pKd
RSLEEEESQL [GRASP, Q7Z6J2] | below the threshold
SRPQRTQTQV [HPV67-E6, A4U7F2] | below the threshold

target: T9, PTPN4, P29074; test: holdup assay; set-up: key: below the threshold = too weak to quantify, mostly under pKd 3.1 to 4; settings: plain residues with an end cap or a label only (N-terminal biotin on a linker: ttds)

Binder | pKd
RSLEEEESQL [GRASP, Q7Z6J2] | below the threshold
SRPQRTQTQV [HPV67-E6, A4U7F2] | below the threshold

target: RIMS1, Q86UR5; test: holdup assay; set-up: key: below the threshold = too weak to quantify, mostly under pKd 3.1 to 4; settings: plain residues with an end cap or a label only (N-terminal biotin on a linker: ttds)
Sequence (Q86UR5 584-692): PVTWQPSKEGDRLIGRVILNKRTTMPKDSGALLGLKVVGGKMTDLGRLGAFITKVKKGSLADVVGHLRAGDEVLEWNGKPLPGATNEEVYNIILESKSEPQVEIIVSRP

Binder | pKd
RSLEEEESQL [GRASP, Q7Z6J2] | below the threshold
SRPQRTQTQV [HPV67-E6, A4U7F2] | below the threshold

target: SCRIB_4, Q14160; test: holdup assay; set-up: key: below the threshold = too weak to quantify, mostly under pKd 3.1 to 4; settings: plain residues with an end cap or a label only (N-terminal biotin on a linker: ttds)
Sequence (Q14160 1095-1204): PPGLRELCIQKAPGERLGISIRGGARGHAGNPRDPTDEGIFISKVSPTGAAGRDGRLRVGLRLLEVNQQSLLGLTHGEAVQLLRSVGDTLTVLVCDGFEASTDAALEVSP

Binder | pKd
RSLEEEESQL [GRASP, Q7Z6J2] | below the threshold
SRPQRTQTQV [HPV67-E6, A4U7F2] | below the threshold

target: T10, SHANK2, Q9UPX8; test: holdup assay; set-up: key: below the threshold = too weak to quantify, mostly under pKd 3.1 to 4; settings: plain residues with an end cap or a label only (N-terminal biotin on a linker: ttds)

Binder | pKd
RSLEEEESQL [GRASP, Q7Z6J2] | 4.33
SRPQRTQTQV [HPV67-E6, A4U7F2] | below the threshold

target: T11, SHROOM2, Q13796; test: holdup assay; set-up: key: below the threshold = too weak to quantify, mostly under pKd 3.1 to 4; settings: plain residues with an end cap or a label only (N-terminal biotin on a linker: ttds)

Binder | pKd
RSLEEEESQL [GRASP, Q7Z6J2] | below the threshold
SRPQRTQTQV [HPV67-E6, A4U7F2] | below the threshold

target: T12, SHROOM4, Q9ULL8; test: holdup assay; set-up: key: below the threshold = too weak to quantify, mostly under pKd 3.1 to 4; settings: plain residues with an end cap or a label only (N-terminal biotin on a linker: ttds)

Binder | pKd
RSLEEEESQL [GRASP, Q7Z6J2] | below the threshold
SRPQRTQTQV [HPV67-E6, A4U7F2] | below the threshold

target: T13, TJP3_1, O95049; test: holdup assay; set-up: key: below the threshold = too weak to quantify, mostly under pKd 3.1 to 4; settings: plain residues with an end cap or a label only (N-terminal biotin on a linker: ttds)

Binder | pKd
RSLEEEESQL [GRASP, Q7Z6J2] | below the threshold
SRPQRTQTQV [HPV67-E6, A4U7F2] | below the threshold

target: T14, USH1C_1, Q9Y6N9; test: holdup assay; set-up: key: below the threshold = too weak to quantify, mostly under pKd 3.1 to 4; settings: plain residues with an end cap or a label only (N-terminal biotin on a linker: ttds)

Binder | pKd
RSLEEEESQL [GRASP, Q7Z6J2] | below the threshold
SRPQRTQTQV [HPV67-E6, A4U7F2] | below the threshold
